Measured values published in article PMC5207764.

Biological target: Vibrio cholerae major pilin TcpA with a His181Ala substitution, assembled in purified TCP^H181A pili (V. cholerae)

B1: Vibrio cholerae minor pilin TcpB (natural protein)
chain: MRKYQQGVGLLEAILASAVLGMALVAAGSYYKREAELMIKSSNAFDVIELSSQIQRYASLSKINNRTNPILKDNKAKEFKDADLKWLKLENCLTAGDVPTTGNNNDLQDQFIACDADYRKGDLSYFGSQFEFSTYVHPSNPEIQRQIKQVVSYFQYRGMERAFIGDAAGYVISEAKKKGFSAQDYRIVLIEPDRVGYFESNVISYEEFIENPSARENFLLKATKDRTLALAVSLAQTGEIAMQRDGSVAFLEDTELCWDTAAGSAKSCLSVRYDTVGNKTELDLKQIDVVSAKGLSFESDGKTKTPVVSTYETFQDGGRAKTINAIECPTGLNNRFAAVVSSFSTAGQNANFSSESAKDSQGTTQKDGSKGPHALLSGISLNWTLTNKVWDVTASIGIESGILPTSGIDSGSLLRNPKSLSFIAFQWCEN
  molar ratio TcpA:TcpB in purified pili (TcpA per TcpB): 7000
